Measured values reported in paper doi:10.1101/2024.08.21.608925.
Read-outs that look alike come from different tables or passages of the source.

Legend:
[1] = molecular target: Multiple peptide resistance factor (MprF) from Pseudomonas aeruginosa, wild type, CPD-His construct after IP6 cleavage (Pseudomonas aeruginosa); assay: cryo-EM structure
[2] = molecular target: Multiple peptide resistance factor (MprF) from Pseudomonas aeruginosa, wild type, CPD-His construct after IP6 cleavage (Pseudomonas aeruginosa); assay: cryo-EM structure; remark: listed apart in the source

Multiple peptide resistance factor (MprF) from Pseudomonas aeruginosa, wild type, CPD-His construct after IP6 cleavage (enzyme)
stoichiometry N [1]: 2
stoichiometry N [2]: 2
